Here are results for 32 sequences from the supplement of paper PMC9170038.

The subject of the data set is MS2 coat protein. The data set is described as follows: apparent KD of MS2 coat protein; designed switch direction (-1 OFF switch, 1 ON switch): -1; higher = weaker reporter binding. In outline: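 Apparent KD, taken as the median over clusters for each design, was obtained by curve-fitting normalised cluster fluorescence. Designed RNA switches had been transcribed on Illumina chips by stalled E. coli RNA polymerase and titrated with SNAP-549-labelled MS2 coat protein, doubling from 0.7 or 1.5 nM to 3 µM.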

Setting [1] is: Eterna round: R95, input ligand: FMN 200 uM.
[2] abbreviates: Eterna round: R95, input ligand: microRNA oligo, concentration not stated.
The mark [3] stands for this setting: Eterna round: R95, input ligand: none.
The mark [4] stands for this setting: input ligand: microRNA oligo, concentration not stated.

In the case of “UAAUAUAGUGUGAGGAUAUGCUGGUCCUUGGAUCAGCAGAAGGCACAUGAGGAUCACCCAUGUAGUUUAUUUUA [Mat - Exclusion 4 - JL Mod - D2] (puzzle: Brourd's mod of Exclusion 4)”, the “apparent KD of MS2 coat protein” value turned out to be 141 nM under setting [1], 28.2 nM under setting [2] and 28.2 nM under setting [3].

Take “GAAUAGAGAGGAUAUGCGUAGUAGGUAGUAAGAUAUAUCUGACAUGAGGAUCACCCAUGUAGAAGGCUCAGAUC [EX2 #3] (Eterna round: R97, puzzle: Exclusion 2)”: the “apparent KD of MS2 coat protein” value came out at 40.1 nM (input ligand: FMN 200 uM) and 35.2 nM (input ligand: none).

On to “UUCCUCACUUCUUUGUCUCACAUGAGGAUCACCCAUGUAAUAUAGGAUAUGCUUAGUAUUUAUAUGCAGAAGGAUAUUAGUAUU [JR_ExcNG3_Sub084] (Eterna round: R96, puzzle: Exclusion NG 3)”, for which the “apparent KD of MS2 coat protein” value turned out to be 157 nM (input ligand: FMN 200 uM), 39.8 nM under setting [4] and 55.5 nM (input ligand: none).

For the sequence “AGAAUUGCCCAUGGCCGCAAGCUUUUUGCUUGUCUUACCACAUGAGGAUCACCCAUGUGACAUGGGCUCCUUAUAAU [Anargees] (puzzle: Sensor v3, turn-off variant 2)”, the “apparent KD of MS2 coat protein” value is, setting by setting: under setting [1], 13.9 nM; under setting [2], 9.32 nM; under setting [3], 11.8 nM.

As for “GGGUAAUUCGUGAGGAUAUCGCUAAGCACUUUGGCCGAGAAGGCACAUGAGGAUCACCCAUGUAAUACGGCACG [Eternabot (L1) Solution 92] (Eterna round: R97, puzzle: Brourd's mod of Exclusion 4)”, the “apparent KD of MS2 coat protein” value (input ligand: FMN 200 uM) came to 70.9 nM and the “apparent KD of MS2 coat protein” value (input ligand: none) is 19.1 nM.

On to “GUCAUACAUGAGGAUCACCCAUGUGAGGAUAUGGGCGGCGCCGCAAAAGCGGCGCCGCCCAGAAGGCGCAUGAU [Malcxlusion 5 - Jieux - Exclusion 1] (Eterna round: R97, puzzle: Exclusion 1)”, for which the “apparent KD of MS2 coat protein” value runs as follows: (input ligand: FMN 200 uM) 195 nM; (input ligand: none) 71.5 nM.

Regarding “UUUAUUUUGCAAGGAUAUGUUUAAUUUUAGUUUCCUUAUACAUGAGGAUCACCCAUGUUAUACUUACAGAAGGUGCAUAAUUUU [JR_ExcNG2_Sub037] (Eterna round: R96, puzzle: Exclusion NG 2)”, under setting [4], the “apparent KD of MS2 coat protein” value worked out at 68.7 nM.

Turning to “AAAUUCAGAGGAUAUGCGCAUAGAUAAGACUUUUUUUUUUAACAUGAGGAUCACCCAUGUAGAAGGCUGUAACA [Ex2 #50] (Eterna round: R97, puzzle: Exclusion 2)”, the “apparent KD of MS2 coat protein” value by setting is: (input ligand: FMN 200 uM) 25.4 nM; (input ligand: none) 21.2 nM.

Turning to “CAGUACUGAGGAUAUACAUGAGGAUCACCCAUGUUUUCCAGCUAGGAAACUAGCAAAUGUAGAAGGCAGUACUG [Salish 065 m5] (Eterna round: R97, puzzle: Exclusion 3)”, the “apparent KD of MS2 coat protein” value reads like this: (input ligand: FMN 200 uM) 253 nM; (input ligand: none) 25.4 nM.

With “UCAAAGCUAGGAUAUACAUGAGGAUCACCCAUGUUAUCACCCAUCGGGUCUUGCUUUUGUAGAAGGAGCAAUAA [Xeinso] (puzzle: Exclusion 3)”, the “apparent KD of MS2 coat protein” value under setting [2] is 25.6 nM.

Take “CGGUGCUCGUGGAAACAUGAGGAUCACCCAUGUUGAGUUAGCGAGGAUAUCGGUAACACAUAUCACGAGAAGGCGCGAACCAGA [Ex NG3 #31] (Eterna round: R96, puzzle: Exclusion NG 3)”: the “apparent KD of MS2 coat protein” value reads like this: (input ligand: FMN 200 uM) 23.3 nM; under setting [4], 11.9 nM; (input ligand: none) 16 nM.

On to “GAAAACGCAGAGGAUAUAUCAGAUCAAAGCUGCAUAGAAGGCUGCACAUGAGGAUCACCCAUGUGGUCUUUAAU [Mat - Exclusion 6 - JL Mod - D1] (Eterna round: R97, puzzle: Exclusion 6)”, for which the “apparent KD of MS2 coat protein” value by setting is: (input ligand: FMN 200 uM) 237 nM; (input ligand: none) 24 nM.

For “GUUAUGUCAGGAUAUGCUAAUGAUGAGUGCUCAGACAUGAUGCAGAAGGGACAUGAGGAUCACCCAUGUACUGA [EX4 #12] (Eterna round: R97, puzzle: Exclusion 4)”, the “apparent KD of MS2 coat protein” value is, setting by setting: (input ligand: FMN 200 uM) 102 nM; (input ligand: none) 35.3 nM.

For “UUUAAUUUUUUUUUUUUACAAGCUUUUUGCUCGUCUUAUACAUGAGGAUCACCCAUGUGGGUAGAAAGUAAAUUAUC [JMF 46] (puzzle: Sensor v3, turn-off variant 2)”, the “apparent KD of MS2 coat protein” value is 13.7 nM under setting [1], 43.6 nM under setting [2] and 15.4 nM under setting [3].

For the sequence “CGAGUGUAAGGAUAUUCGGCGCCAGGGAACGACCUGGCGUAGAAGAAGGUACAUGAGGAUCACCCAUGUGGUUA [Issobi] (puzzle: Exclusion 4)”, under setting [2], the “apparent KD of MS2 coat protein” value is 142 nM.

Turning to “CCUCCACAUGAGGAUCACCCAUGUGAGGAUAUCCUGCGAGGAUCAAAAGAUCCUCGUGGGAGAAGGCACAUGAA [Omei Ex1 A9] (Eterna round: R97, puzzle: Exclusion 1)”, the “apparent KD of MS2 coat protein” value (input ligand: FMN 200 uM) was determined as 241 nM and the “apparent KD of MS2 coat protein” value (input ligand: none) was 39.3 nM.

In the case of “UACAUGAGGAUCACCCAUGUUUUGUCGUGUAUGGUAUUUAUCUAGGAUAUCAAUAUAUUUAUUUAUGAGAAGGAGAAUAUUAAU [JMF's solution 11] (Eterna round: R96, puzzle: Exclusion NG 3)”, the “apparent KD of MS2 coat protein” value under setting [4] is 28.5 nM.

With “CACCUACAUGAGGAUCACCCAUGUGAGGAUAUGGAACAACAAGAACAUUUACUUGUUCCCAGAAGGCACAUUGG [jun14#1] (Eterna round: R97, puzzle: Exclusion 1)”, the “apparent KD of MS2 coat protein” value runs as follows: (input ligand: FMN 200 uM) 64.3 nM; (input ligand: none) 130 nM.

In the case of “CUGGAGUCAGGAUAUAGGGCGGCUAUAACGCUCGCGCCGACCUAGAAGGGACUUGAGGAUCACCCAAGUAAAAU [Teerlaxe] (Eterna round: R97, puzzle: Exclusion 4)”, the “apparent KD of MS2 coat protein” value runs as follows: (input ligand: FMN 200 uM) 167 nM; (input ligand: none) 55.1 nM.

For “CCGCAGCAAGGAUAUACUUGCGGUGGUGAACGAGGGCUUAUACUUGAGGAUCACCCAAGUAGAAGGUGCAAAAC [Mamaed] (Eterna round: R97, puzzle: Exclusion 2)”, the “apparent KD of MS2 coat protein” value reads like this: (input ligand: FMN 200 uM) 33.9 nM; (input ligand: none) 22.4 nM.

On to “CCGAAUAUGCAGGAUAUCGUAUCGGAAACGAUACGAGAAGGGCAAACAUGAGGAUCACCCAUGUUCCUUAACGG [Fiskers Ex 6 - 14] (puzzle: Exclusion 6)”, for which the “apparent KD of MS2 coat protein” value under setting [2] stood at 15.8 nM.

In the case of “AUCAGCUCGUGAGGAUAUACAUCACUGCUUCGGCAGUGUAUUAAGAUCACAUGAGGAUCACCCAUGUAGAAGGCACGAGCUGAU [ENG2/2-A3] (Eterna round: R96, puzzle: Exclusion NG 2)”, the “apparent KD of MS2 coat protein” value (input ligand: FMN 200 uM) is 437 nM, the “apparent KD of MS2 coat protein” value under setting [4] is 31.7 nM and the “apparent KD of MS2 coat protein” value (input ligand: none) turned out to be 38.3 nM.

For “GCCGUCAGUGUGAGGAUAUGCCUAUGGAUACGUAGGCAGAAGGCACAUGAGGAUCACCCAUGUCCUAAGACGGC [JL-BMX4-4.33 Eli mod] (Eterna round: R97, puzzle: Brourd's mod of Exclusion 4)”, the “apparent KD of MS2 coat protein” value was 146 nM (input ligand: FMN 200 uM) and 190 nM (input ligand: none).

Regarding “AGCGAGGCAGGAUAUACAUGAGGAUCACCCAUGUGCUUGCAUGGCGUGGGACGUCGAGGUAGAAGGGCCAUGCC [EX3 #70] (Eterna round: R97, puzzle: Exclusion 3)”, the “apparent KD of MS2 coat protein” value is, setting by setting: (input ligand: FMN 200 uM) 87.3 nM; (input ligand: none) 52.1 nM.

As for “CAGUACUGAGGAUAUACAUGAGGAUCACCCAUGUGUUCCAGCUAGGAAACUAGCAGAAGUAGAAGGCAGUACUG [salish99_ex3_r3_067] (Eterna round: R96, puzzle: Exclusion 3)”, the “apparent KD of MS2 coat protein” value by setting is: (input ligand: FMN 200 uM) 311 nM; under setting [4], 17 nM; (input ligand: none) 23.3 nM.

For “CACCGUUAAGUAGGAUAUCGUACAUGAGGAUCACCCAUGUAAUAAAUGAGAAUUUCGGAUGUAUGCGAGAAGGACUAAAUCGGC [Ostricism 45 - Jieux - Exclusion NG 2] (Eterna round: R96, puzzle: Exclusion NG 2)”, under setting [4], the “apparent KD of MS2 coat protein” value worked out at 39 nM.

“AGUUGGCGAGGAUAUACAUGAGGAUCACCCAUGUAUGAGAUACGAGUAAGGUAAAUAUGUAGAAGGCGCUGACA [JR_Ex3_Sub077] (Eterna round: R97, puzzle: Exclusion 3)”: the “apparent KD of MS2 coat protein” value came out at 52 nM (input ligand: FMN 200 uM) and 16.8 nM (input ligand: none).

Consider “UAAAUGUGAGGAUAUCAGGUGUGCUAGAGAACUGGUACAUCUGAGAAGGCACAUGAGGAUCACCCAUGUUCUUC [Mat - Exclusion 4 - Mod of JL - D56] (puzzle: Exclusion 4)”, for which the “apparent KD of MS2 coat protein” value under setting [2] is 38.3 nM.

With “UAUGUAUACGUCAGGAUAUACGGUCCAGAUGGUAAGUAGAAGGGACAUGAGGAUCACCCAUGUAUAAUAAUAAU [AK 1] (puzzle: Brourd's mod of Exclusion 4)”, the “apparent KD of MS2 coat protein” value runs as follows: under setting [1], 20.2 nM; under setting [2], 18 nM; under setting [3], 22.5 nM.

Regarding “AGAGACAAUCUAGGAUAUGUGUAUGAAGAGUGCGCAGAAGGAGACAUGAGGAUCACCCAUGUACAGCGACAGAAGACGACAACC [Matt's Exclusion 2] (Eterna round: R96, puzzle: Exclusion NG 1)”, the “apparent KD of MS2 coat protein” value was found to be 14.4 nM (input ligand: FMN 200 uM), 36.2 nM under setting [4] and 17.5 nM (input ligand: none).

For “AGCUAGUCAGGAUAUACGAACAUGUCAAAAGACGUGAAGGGACAUGAGGAUCACCCAUGUAGAAGGGACUAGCC [salish99-Ex2-17] (Eterna round: R96, puzzle: Exclusion 2)”, the “apparent KD of MS2 coat protein” value under setting [4] came to 23.8 nM.

On to “AGCUGUGGCCGAGGAUAUCACGACCGAUGGAAAACCAUCGGAACUCCACAUGAGGAUCACCCAUGUGAGAAGGCGGUCUCAGCA [Eli eng2 - 028] (Eterna round: R96, puzzle: Exclusion NG 2)”, for which the “apparent KD of MS2 coat protein” value by setting is: (input ligand: FMN 200 uM) 27.3 nM; under setting [4], 10.2 nM; (input ligand: none) 13.4 nM.
